Results published in patent publication US20240299510A1.

Assays:
[1] = target: HIT01-Combo3; experiment: BLI (Octet); antibody IgG 50 ug/ml on AHC sensor, immunogen from 500 nM in 2x dilutions
[2] = target: HIT01-K21Q-R218E; experiment: as above
[3] = target: human PCSK9 (human) (UniProt Q8NBP7); experiment: BLI (Octet) blocking; wt PCSK9 on Ni-NTA sensor, 50 ug/ml AMG145 for 300 s, then NHP serum (competitor) at 200-fold dilution
[4] = target: HIT01-K21Q-R218E; experiment: BLI (Octet) blocking; HIT01-K21Q-R218E on Ni-NTA sensor, 50 ug/ml AMG145 for 300 s, then NHP serum (competitor) at 200-fold dilution

Kd [1] [nM]	Kd [2] [nM]	reduction of serum response when the probe is blocked [3] [%]	reduction of serum response when the probe is blocked [4] [%]	Substance
0.005	< 0.001	50	50	AMG145 (antibody)
112	58	–	–	Alirocumab (antibody)
